Measured values from the DeepSol protein solubility set.

Assay: soluble on expression in E. coli; label from the status in PepcDB or PDB records

Sequence	soluble on expression in E. coli
MSNVIFSQKLYDTAQMVVDGCMGDADPACQTACPMHTDVKQYVRLAGEGNYQEALDLIRGKLFLPQTLGRICAHPCEAACRRNTEYNQPISVAGIKRFVAEKMDKQSNWDLTVANDSGKKIAIVGAGPAGAQAAIELRRSGHQVTIYEKLNVYGGMMRVGIPEYRLPRDVIDFEYGYLDMLGIETKFGIEIGKDISFNELRLSHDAIILAHGAHVGSIIPLPGHKAQGVFSAVEYLKEVSETRDFPRAGKRIMVIGGGDVAMDCARSSWRIGVDEVHQCSLEEMAKLPASQIEIDESLEEGVLFNAGWGPISIEETDGKVTGIVLKKVISIFDENGNFSPSYSDETRTIAVDTVIFATGQVVADITDGALEQTRGGRYVVDKDTLASSVDGVYVAGDACGGNIVVEAMALGHKAALSIERQFAKRPLTENRDFEKEYNYPSRLDIPLPKGTTDTPRLHGQLRDAEERKQDFKQVDLGFSEEQIKQEASRCLQCTCKLCMNECVMMNDFGDCPKTLFSDFINNKTMDPLLAYSCNACDQCTIVCPKDYPMKEMFLSARVDFVNANGGNSPIPGHKAINMHQKLGFSKFFTMAKRTVASKLEHHHHHH	not soluble
MSNWTTYPQKNLTQAEQLAQLIKEADALVVGIGAGMSAADGFTYIGSRFETAFPDFIAKYQFLDMLQASLFDFEDWQEYWAFQSRFVALNYLDQPVGQSYLDLKEILGTKDYHIITTNADNAFWVAGYDPHNIFHIQGEYGLWQCSQHCHQQTYKDDTVIRQMIAEQKNMKVPGQLIPHCPECEAPFEINKRNEEKGMVEDADFHAQKARYEAFLSEHKEGKVLYLEIGVGHTTPQFIKHPFWKRVSENPNALFVTLNHKHYRIPLSIRRQSLELTEHIAQLISATKTIYQKS	not soluble
MSPAQIIRTPHSFPPSFTGTSSSAENSHAQSPQQVLTRAFVASGELNAAFGRTSTASEQDFTSLLGTLQRELERKTLSFPDIAELANQLAEAAKGDQGGHWLGRDEQQTLKGMIDRCKSQLAHTHASDASYDPLAQVCENLKTARLHQSISQMTGEAHAKVRGVPDLLALIQLDPDVLAEKPVGMTSYVNFGSFICMAKARTAELSEDLRSDPNEVALLLHPHADTILELERLPDALAALTENCPDTPTRDDLRSLAKETGELLQQLRANDLLPRSEEVSSYQGETSVRSREVVEPKLTLCQAGGNGQGQLEASSARPESLRYAPTRAASSGSEARVPGQAVGGKIADDAQKVAGLYAEKKRTNWTQANGVAGKISHKIQSLLGMRDAGSRVQAFVAFMADGKGRPGATMLDLGDGWMRATRVIKGEAALIDFQCDSDGKVVDARHPGRFPVLPQGNEREAFKTVLQELKFRGAETLSKVPVYYVNRNTRGYVIPTHGYVVAGHPNRGRKSGAVLYGVGGDPKRGPVALDEKLLGHLVGRSDSKTSSKLSAPVKAAISALAGASFATREDFYDAYCAVRGDAVDPLERHNEISSIYRLLPLSTMEMWPKKADDYRVARPA	not soluble
MSPLWLVVFIVPLASGISLSDCSKKNSCYGSPVNCQPGIDCHVLLRFEDDGTLDVHLQNFTAPDGYVALAYNSNQNAPTEYLICIPHERKRLRGISSQGEIITITEQNMAQYVAQMDTNTFICSFVGKEIPSNFRMQSNFVVSEGLFANESNIPTTYKLEPISTDSVFFHPIAATIGRQDEALSEDEEKLATDLLGKVQRLSDHDSESTDMEAILNEKNRFTIEEFEEKLFSAMSNRRRPIKKFEREEEDQDDDEYSEVEEKESHPKKRREHKKGRHTRVLSDEQEEDYDQYEDDMPSKKRKRPFNSEELENGEDVDFGKKSNKNSQKGTFDGQRQR	not soluble
MSPQDTCCPPDSWPALKVDYKPKGKLEDIGKGLKAYVVGNGPRAVIALNDVFGIESGHSKEICDAIADKGFTVVFPDVFRGKPLQVSDMSKLFDELPGWAKQFDYEPALRKDVVEVILPYLHDKLGFKSNDQIALAGFCWGAFMLFHLAGDTKLPGGPFACGVSFHPSVQIEGVFQRDPLQLIDRATCPQLLLPSAGEPDYMKEEGDAIKKLRAKPFGASCGVKTFPSMQHGWVNRGDRNDPQVVKEAQEALQLAVDFMMRHTKPKA	not soluble
MSPQTRPDAMSVVQERQVLRVGTLINPTSYYFDHDREQGFEYDLAKRFADRLGVELEMVPRFDVNDLFTMLRRGEVDIVAAGLDRTSTRAQLFRFSPPYDIISQKVVFKQGSRQRPRDLQQITDGEIVVVEGSSHHEFLKSLGDSIPTLKWRATRDHDAVELLQMVISGEVDYTITDSTALDIQRRFHPDLSVAFTVKHDQDIAWALPQGKDDSLFAAVIEYFGEIRSSGRLAHIKEQHFGHVKQFNYVTTSLFIEAVEQVLPGYIETFKEHSGSLDWRLLAAISYQESLWNPRAVSPTGVRGMMMLTLPTAKAMGVKSRLNAEQSIRGGARYLERMLNRVPARIPQPDRTWFAIAAYNIGFGHLEDARIITERQGGNPDRWVDVKKRLPLLRQKQFYRHTRYGFARGDEPVTYVGNIRRFYDTLKYLDEQGRLLEHHHHHH	soluble
MSPSESGELSIIQELSQRIVEAQRQIRILDSIKWDESVKQEFFKFKGKKLPSIDKAYYDGKPLPFKVKDKQEEFRIILRDAQNQLGQYSTVTRLIRRQCEEYSRAAQMLSLRGTPSFSEMAMELYGSPDDVFYVGGPRMCEMGSLLFDVLKSLQVQLQSQADIKRYTPIQAQEILQERLGKFFDKHPGRVSVMVSDDMIADASAGADSIKLSQNAMFSDRDLRYLEVHEGWVHVGTTLNGALQPNCFFLSKGSPSSSVIQEGLAVITEVVTFSSYPGRMLKITNRVIALDKVTQGADFIDIYRYFLECGLSEEDSYNQSVRIFRGSTPTGGPFTKDLSYAKGFVLIYNYIRFAIGQKRVDTIPLLFTGKLVLDDLPLLGELKEREILTDPVYLPPPFQDLAALSAWMSFSLYLNQFDLNEIQKNFRFLLVLEHHHHHH	not soluble
MSPWERILLEEILSEPVRLVKERVRTHTGRELTYVYRPGPVAASFVLPVTERGTALLVRQYRHPTGKFLLEVPAGKVDEGETPEAAARRELREEVGAEAETLIPLPSFHPQPSFTAVVFHPFLALKARVVTPPTLEEGELLESLELPLTEVYALLAKGEIQDASTALTLFYAEPHLKRLGLL	soluble
MSQAFTESVKTSLGPNATPRAKKLIASLVQHVHDFARENHLTTEDWLWGVDFINRIGQMSDSRRNEGILVCDIIGLETLVDALTNESEQSNHTSSAILGPFYLPDSPVYPNGGSIVQKAIPTDVKCFVRGKVTDTEGKPLGGAQLEVWQCNSAGFYSQQADHDGPEFNLRGTFITDDEGNYSFECLRPTSYPIPYDGPAGDLLKIMDRHPNRPSHIHWRVSHPGYHTLITQIYDAECPYTNNDSVYAVKDDIIVHFEKVDNKDKDLVGKVEYKLDYDISLATESSIQEARAAAKARQDAEIKL	soluble
MSQDFVTLVSKDDKEYEISRSAAMISPTLKAMIEGPFRESKGRIELKQFDSHILEKAVEYLNYNLKYSGVSEDDDEIPEFEIPTEMSLELLLAADYLSI	soluble
MSQGDSNPAAIPHAAEDIQGDDRWMSQHNRFVLDCKDKEPDVLFVGDSMVQLMQQYEIWRELFSPLHALNFGIGGDTTRHVLWRLKNGELENIKPKVIVVWVGTNNHENTAEEVAGGIEAIVQLINTRQPQAKIIVLGLLPRGEKPNPLRQKNAKVNQLLKVSLPKLANVQLLDTDGGFVHSDGAISCHDMFDFLHLTGGGYAKICKPLHELIMQLLEETPEEKQTTIA	soluble
MSQLDNNLSVSVYMKGNVNNHEFEYDGIGGGDPNSGQFSLKTKLRGGKPLPFSYDIITMGFQYGFRAFTKYPEGIADYFKGSFPEAFQWNRRIEFEDGGVINMSSDITYKDKVLHGDVWALGVNFPPNGPVMKNEIVMEEPAEETLTAKNGVLVGFCPKAYLLKDGSYYYGHMTTFYRSKKSGQPLPGFHFIKHRLVKTKVEPGFKMVEQAEYATAHVCDLPKPN	soluble
MSQNSLPSEVSNATIDKELYYHGLLPSEDVRQLLSNNGDFLLRSSEPEPGSPRTHILSVMFNNRLDDINSIKHFVVNFVDGKYFINDKMSFPSIQKMLGTYQRNNTEIKEGCMLVNPIRRQFWELEHDQITIHKKLGEGAFGEVSSGVMKFKKGMKTVQVAIKQVKLDKTGKAKIKDFLAEARTMRKLGHQNIIKFYGVGVLQEPLYLVMELAVNGALDSFLKKNEDLSVDKKTEMILQAAWGLEYIHGKPMLHRDIAARNCLYTDGKVKISDFGLTRNGTVYQIKPNTKSPIRWLAIETIKTMICSEKTDVWAYGVLCWEIFNNAAEPYPGMKPADVATQVANGYRMPPYPHAQAEIQTMMARCNAENPNDRPSMAEIAEILQRVTETPRPNFTAIAKKEAEELLLMNSVTTKTTARRKKSNVKLPKGMSKN	not soluble
MSQRKYFGTDGVRGEVGGPVINAAFALRLGYAAGRVLAREHREHASGRGRNRPQVVIGKDTRISGYMLESALEAGLSAAGIDVLLAGPVPTPAVAYLTRTLRLAAGIVISASHNPYQDNGIKFFSAHGMKLPDDIEAAIEQALDEPLGCVGSEELGRARRMADAQGRYIEFCKSTFPHDLDLNGLKLVVDAAHGAAYNVAPHVFRELGAEVHAIGVSPDGFNINKGVGALHPESLAEEVRARGADLGIALDGDADRLQMVDGTGRIYNGDELLYAIVRERMQRGPVAGVVGTLMTNYGLERQLQQIGVGFERANVGDRYVLEQMQARGWLYGGESSGHLLCLDCHTTGDGTIAALQVLTALRRADATLAEWVADLRMYPQKMINVPLAPGLDWKTHDGLARARGAVEAELAGRGRVLIRASGTEPKLRLMVEAEDEALAQASAQKLADSLGA	not soluble
MSQSDLVTIKNLRFSRSQRVIFDDIDLHVPKGKVTAIMGPSGIGKTTLLRLIGGQLLPEQGEIWFDGENIPTLSRRKLYRARKKMSMLFQSGALFTDLNVFDNVAYPLREHTELDEAMIKTLVLLKLEAVGLRGAAYLMPSELSGGMARRAALARAIALDPELIMYDEPFVGQDPITMGVLVELIRNLNRALGVTSVVVSHDVPEVMSIADWVYLLADGKVIAQGSPQALRDNPDPRVQQFLCGDADGPVPFRFPAQPIEQELFSAK	not soluble
MSQSGEQRRYTLGEFFSLAGDERMELYEGTIVLMYPVPYEHEGVVANLIAEFRMALKGSPCLVFGSNLQVVLLFEDEQKGTKNVTVLPDLSIICDRTKLRQGRCYGAPDLVVEVLSPSTARNDRLLKRLYYEKAGVREYWLVDYQHKVMEKYVWQSGAFQLEDVYDAANGAAASTVFPEVRFSVKEIFAFLTS	not soluble
MSQSRHRAEAPPLEREDSGTFSLGKMITAKPGKTPIQVLHEYGMKTKNIPVYECERSDVQIHVPTFTFRVTVGDITCTGEGTSKKLAKHRAAEAAINILKANASICFAVPDPLMPDPSKQPKNQLNPIGSLQELAIHHGWRLPEYTLSQEGGPAHKREYTTICRLESFMETGKGASKKQAKRNAAEKFLAKFSNISPENHISLTNVVGHSLGCTWHSLRNSPGEKINLLKRSLLSIPNTDYIQLLSEIAKEQGFNITYLDIDELSANGQYQCLAELSTSPITVCHGSGISCGNAQSDAAHNALQYLKIIAERK	soluble
MSRDPTLILDESNLVIGKDGRVHYTFTTEDDNPKVRLASKCLGTAHFNQLMIERGDQATSYVAPVVVEGTGNPTGLFKDLKEISLELTDTANSQLWSKIKLTNRGMLQEYYDGKIKTEIVNSARGVATRISEDTDKKLALINDTIDGIRREYRDADRKLSASYQAGIEGLKATMANDKIGLQAEIKASAQGLSQKYDDELRKLSAKITTTSSGTTEAYESKLAGLRAEFTRSNQGTRTELESQISGLRAVQQSTASQISQEIRDREGAVSRVQQSLESYQRRMQDAEENYSSLTHTVRGLQSDVGSPTGKIQSRLTQLAGQIEQRVTRDGVMSIISGAGDSIKLAIQKAGGINAKMSGNEIISAINLNSYGVTIAGKHIALDGNTTVNGTFTTKIAEAIKIRADQIIAGTIDAARIRVINLNASSIVGLDANFIKAKIGYAITDLLEGKVIKARNGAMLIDLNTAKMDFNSDATINFNSKNNALVRKDGTHTAFVHFSNATPKGYTGSALYASIGITSSGDGVNSASSGRFAGLRSFRYATGYNHTAAVDQTEIYGDNVLVVDDFNITRGFKFRPDKMQKMLDMNDLYAAVVALGRCWGHLANVGWNTAHSNFTSAVNRELNNYITKI	not soluble
